Measurements as given in patent US6428997B1, “Aminopeptidase derived from Bacillus licheniformis and process for preparation of natural type proteins” (LG Chemical Ltd., priority 1997, dated 2002).

Legend:
[1] = substrate: CSCC[C@H](N)C(=O)Nc1ccc([N+](=O)[O-])cc1; experiment: Kinetic parameters of Bacillus licheniformis aminopeptidase (Lineweaver-Burk); type: biochemical; conditions: other: Tris-Cl pH 8.0, 37° C., 0.5 U enzyme, absorbance at 405 nm, Lineweaver-Burk plot
Description: (§1) Aminopeptidase activities of this invention were measured by the method of Pfleiderer (Pfleiderer, Meth. Enzymol., 19, 514-521, 1970). Precisely, 1 U of enzyme activity defines the enzyme quantity changing 1 absorbance at 405 nm which is measured by the process adding aminopeptidase in 1 ml solution of […] Tris-Cl (pH 8.0) and 2 mM leucine-p-nitroanilide (Sigma, USA), incubating at 37° C. for 1 min, then adding 100 μl of 70% acetic acid to stop the reaction. At that time leucine-p-nitroanilide was dissolved in dimethylsulfoxide (DMSO) to make 100 mM solution.
(§2) In order to compare substrate specificity of aminopeptidase of this invention, 2 kinds of substrate were used. In detail, one was synthetic substrates of p-nitroanilide derivative and purchased from Sigma, USA and the other was oligopeptide such as methionyl oligopeptide of SEQ. ID. NO: 1 which have amino acid sequence similar to N-terminus of methionyl HGH and leucyl oligopeptide of SEQ. ID. NO: 2. The oligopeptides of this invention were synthesized.
(§3) Enzyme reaction of aminopeptidase was performed by the process described in Reference Examples. At that time p-nitroanilide derivative was used as synthetic substrate. Leucine p-nitroanilide was used as substrate to perform the reaction in concentration of 0.03125, 0.0625, 0.125, 0.25, 0.5, 1 mM and methionine p-nitroanilide in 0.125, 0.25, 0.5, 1 mM and aminopeptidase in 0.5 U respectively. Above reactions using leucine-p-nitroanilide proceeded for 2 min and methionine-p-nitroanilide for 40 min. Then 70% acetic acid was added to stop the reactions and absorbance at 405 nm was measured. The product concentration was measured by adopting absorbance constant ε405=9450M^−1 cm^−1.
(§4) In reaction condition mentioned above, initial velocity of enzyme reaction was measured with varying the substrate concentration. Lineweaver-Burk plot was used to determine Km value and Maximum reaction velocity of aminopeptidase from Bacillus licheniformis. In addition kcat and kcat/Km was determined by using Km value and maximum reaction velocity described above.

[2] = substrate: CC(C)C[C@H](N)C(=O)Nc1ccc([N+](=O)[O-])cc1; experiment: as above; type: biochemical; conditions: other: Tris-Cl pH 8.0, 37° C., 0.5 U enzyme, absorbance at 405 nm, Lineweaver-Burk plot
Description: as §1, §2, §3, §4

B1: Bacillus licheniformis aminopeptidase (Bacillus licheniformis DSM 13 = ATCC 14580) (protein)
chain: KFSKKFNENRAYQTIYHLSETIGPRVTGTAEEKKSAAFIASQMKKSNLKVSTQKFSIPDRLEGTLTVQGNNVPARPAAGSAPTAAEGLAAPLYDAGLGLPGDFTEEAKGKIAVILRGELTFYEKAKNAADAGASGVIIYNNVDSLVPLTPNLSGNKVDIPVVGVKKEDGEKLLSEQEAILKLKAHKNQTSQNVIGVRKAKGVKNPDIVYVTSHYDSVPYAPGANDNASGTSVVLELARILKTVPADKEIRFITFGAEEIGLLGSRHYVSTLSNQEVKRSVANFNLDMVATSWENASQLYINTPDGSANLVWQLSKAASLSLGKDVLFLHQGGSSDHVPFHEAGIDSANFIWREPGTGALEPWYHTPYDTIEHISKDRLKTAGQIAGTAVYNFTKKENRKPSYSSVAQ
Work on B1 yielded a Km [1] of 1004 µM, a kcat [1] of 2.59 s⁻¹ and a kcat/Km [1] of 2580 M⁻¹ s⁻¹. The Km [2] was 739 µM, the kcat [2] was 130 s⁻¹ and the kcat/Km [2] was 176000 M⁻¹ s⁻¹.
